Reference: patent US20160185837A1 (AstraZeneca / MedImmune, published 2016)
Residue numbers refer to the chain shown, from its start. Ends that are not written are not given here.

T1: human GIP receptor (human, UniProt P48546 22-466)
T1 sequence (looked up): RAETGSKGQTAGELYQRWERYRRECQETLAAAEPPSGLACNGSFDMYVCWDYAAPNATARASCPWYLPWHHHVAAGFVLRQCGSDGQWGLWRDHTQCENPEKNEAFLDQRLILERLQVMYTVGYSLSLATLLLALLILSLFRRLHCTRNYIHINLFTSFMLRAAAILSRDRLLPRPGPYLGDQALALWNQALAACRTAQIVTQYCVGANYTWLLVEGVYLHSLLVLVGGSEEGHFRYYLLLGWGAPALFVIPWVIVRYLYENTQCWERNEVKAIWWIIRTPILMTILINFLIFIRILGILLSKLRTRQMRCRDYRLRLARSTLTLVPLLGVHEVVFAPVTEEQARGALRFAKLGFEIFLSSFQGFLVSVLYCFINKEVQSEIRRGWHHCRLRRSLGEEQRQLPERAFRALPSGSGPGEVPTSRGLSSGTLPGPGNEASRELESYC

T2: mouse GLP-1 receptor (mouse, UniProt O35659 22-463)
T2 sequence (looked up): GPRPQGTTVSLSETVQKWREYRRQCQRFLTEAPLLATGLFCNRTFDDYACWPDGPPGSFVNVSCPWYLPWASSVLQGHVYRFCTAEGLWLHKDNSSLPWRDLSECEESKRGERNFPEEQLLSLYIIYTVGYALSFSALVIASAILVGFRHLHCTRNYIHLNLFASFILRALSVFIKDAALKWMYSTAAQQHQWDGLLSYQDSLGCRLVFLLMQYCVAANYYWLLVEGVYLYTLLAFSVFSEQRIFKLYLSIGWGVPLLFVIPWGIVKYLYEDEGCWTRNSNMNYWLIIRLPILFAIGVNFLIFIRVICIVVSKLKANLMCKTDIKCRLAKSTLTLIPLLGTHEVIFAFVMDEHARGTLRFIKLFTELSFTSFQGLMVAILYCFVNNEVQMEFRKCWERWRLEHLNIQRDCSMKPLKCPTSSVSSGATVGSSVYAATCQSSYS

T3: mouse GIP receptor (mouse, UniProt Q0P543 19-460)
T3 sequence (looked up): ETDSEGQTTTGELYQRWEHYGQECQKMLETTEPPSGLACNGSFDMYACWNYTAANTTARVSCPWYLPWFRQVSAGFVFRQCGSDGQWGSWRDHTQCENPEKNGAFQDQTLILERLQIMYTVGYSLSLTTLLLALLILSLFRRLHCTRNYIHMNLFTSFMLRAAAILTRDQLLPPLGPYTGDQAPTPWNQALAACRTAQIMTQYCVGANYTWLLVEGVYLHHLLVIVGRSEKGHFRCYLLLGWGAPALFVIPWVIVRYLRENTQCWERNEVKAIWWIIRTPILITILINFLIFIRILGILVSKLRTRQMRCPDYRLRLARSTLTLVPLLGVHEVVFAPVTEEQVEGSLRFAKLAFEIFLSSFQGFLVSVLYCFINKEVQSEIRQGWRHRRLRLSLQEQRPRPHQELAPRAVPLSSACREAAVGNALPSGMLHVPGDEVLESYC

T4: rat GLP-1 receptor (rat, UniProt P32301 22-463)
T4 sequence (looked up): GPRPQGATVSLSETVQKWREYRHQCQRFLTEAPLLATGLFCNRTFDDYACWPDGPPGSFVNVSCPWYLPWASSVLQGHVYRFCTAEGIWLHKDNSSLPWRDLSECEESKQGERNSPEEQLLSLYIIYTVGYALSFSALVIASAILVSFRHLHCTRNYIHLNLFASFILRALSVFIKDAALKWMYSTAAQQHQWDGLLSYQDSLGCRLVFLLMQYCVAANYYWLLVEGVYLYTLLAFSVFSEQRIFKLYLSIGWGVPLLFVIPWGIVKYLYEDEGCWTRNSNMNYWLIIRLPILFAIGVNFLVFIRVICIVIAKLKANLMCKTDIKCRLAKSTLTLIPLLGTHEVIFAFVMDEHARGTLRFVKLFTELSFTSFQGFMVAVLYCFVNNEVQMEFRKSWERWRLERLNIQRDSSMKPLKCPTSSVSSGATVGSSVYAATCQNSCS

T5: rat GIP receptor (rat, UniProt P43219 19-455)
T5 sequence (looked up): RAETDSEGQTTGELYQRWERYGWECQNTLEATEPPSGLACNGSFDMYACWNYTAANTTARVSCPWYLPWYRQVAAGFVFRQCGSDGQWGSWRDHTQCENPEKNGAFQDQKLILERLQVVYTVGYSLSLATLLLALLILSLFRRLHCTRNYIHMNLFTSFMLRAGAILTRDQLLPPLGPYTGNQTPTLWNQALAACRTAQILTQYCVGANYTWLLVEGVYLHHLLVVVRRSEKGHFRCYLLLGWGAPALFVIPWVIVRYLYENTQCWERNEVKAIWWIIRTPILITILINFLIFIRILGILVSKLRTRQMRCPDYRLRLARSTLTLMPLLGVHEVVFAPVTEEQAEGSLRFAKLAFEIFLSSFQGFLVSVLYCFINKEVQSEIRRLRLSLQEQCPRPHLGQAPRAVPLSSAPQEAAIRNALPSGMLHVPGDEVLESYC

B1: IP235 (Fc fusion)
chain: YSEGTFTSDYSKLLEEEAVRLFIEWLVKGPGGGGGSGGGGSATHTCPPCPAPEF
modifications: cysteine pairing not given here; also: fused to IgG1-TM Fc
B2: IP222 (Fc fusion)
chain: YSEGTFTSDYSKLLEEEAVRLFIEWLKNGGPSSGAPPPSAAAGGSGSTASSGSGSATGGGGAATHTCPPCPAPEF
B3: IP257 (Fc fusion)
chain: SEGTFTSDYSKLLEEEAVRLFIEWLVKGPGGGGGSGGGGSGGGGSGGGGSATHTCPPCPAPEF
B4: IP237 (Fc fusion)
chain: YSEGTFTSDYSKLLEEEAVRLFIEWLVKGPGGGGGSGGGGSGGGGSGGGGSATHTCPPCPAPEF
B5: IP383 (Fc fusion)
chain: YSEGTFTSLYRILLEEEAVRLFIEWLLAGGGGGGSGGGGSGGGGSGGGGSATHTCPPC
B6: IP127 (Fc fusion)
chain: YSEGTFTSDVSSYLEEEAVREFIEWLLAGGAAAGGSGSTASSGSGSATGGGGAATHTCPPCPAPEF
B7: IP024 (Fc fusion)
chain: YSEGTFTSDYSKLLEEEAVRLFIEWLLAGAAAGGSGSTASSGSGSATGGGGAATHTCPPCPAPEF
B8: IP124 (Fc fusion)
chain: B7 chain with L27V, A28K
B9: IP085 (Fc fusion)
chain: B7 chain with A31P, A32P
B10: IP244 (Fc fusion)
chain: B7 chain with Y10V, A31P, A32P
B11: IP236 (Fc fusion)
chain: YSEGTFTSDYSKLLEEEAVRLFIEWLVKGPGGGGGSGGGGSGGGGSATHTCPPCPAPEF
modifications: cysteine pairing not given here; also: fused to IgG1-TM Fc
B12: IP147 (Fc fusion)
chain: YSEGTFTSDYSKLLEEEAVRLFIEWLVKGPAPPGGSGSTASSGSGSATGGGGAATHTCPPCPAPEF
B13: IP245 (Fc fusion)
chain: B12 chain with K12I, L13A, L14M, E15D, P32A, P33A
B14: IP249 (Fc fusion)
chain: B6 chain with V10Y, S12K, Y13L, E21L, G29Q, G30K
B15: IP228 (Fc fusion)
chain: B12 chain with V27K, K28N, P30G, P32A, P33A
B16: IP149 (Fc fusion)
chain: B12 chain with E3Q

Biological target: human GLP-1 receptor (human, UniProt P43220 24-463)
Experiment: cell-based or functional assay

Binder	cAMP EC50 [pM]	cAMP EC50, Batch 2 [pM]	cAMP EC50, Batch 4 [pM]
B1	230	–	–
B2	140	–	–
B3	7200	–	–
B4	95	–	–
B5	190	–	–
B6	87	–	–
B7	95	160	–
B8	91	–	–
B9	150	–	100
B10	180	–	–
B11	150	–	–
B12	67	–	–
B13	460	–	–
B14	2600	–	–
B15	160	–	–
B16	70	120	–

Biological target: human glucagon receptor (human, UniProt P47871 26-477)
Experiment: cell-based or functional assay

Binder	cAMP EC50 [nM]	cAMP EC50, Batch 2 [nM]	cAMP EC50, Batch 4 [nM]
B1	> 9900	–	–
B2	590	–	–
B4	> 1800	–	–
B5	> 1610	–	–
B7	17	25	–
B9	7.1	–	3.6
B11	> 5500	–	–
B12	130	–	–
B15	1400	–	–
B16	0.2	0.23	–

Biological target: T1, human GIP receptor
Experiment: cell-based or functional assay

Binder	cAMP EC50 [pM]	cAMP EC50, Batch 2 [pM]	cAMP EC50, Batch 4 [pM]
B1	21	–	–
B2	15	–	–
B3	180000	–	–
B4	12	–	–
B6	120	–	–
B7	7.1	10	–
B8	9	–	–
B9	9.9	–	6.5
B10	42	–	–
B11	16	–	–
B12	3.7	–	–
B13	150	–	–
B14	19	–	–
B15	14	–	–
B16	8.1	12	–

Biological target: T2, mouse GLP-1 receptor
Experiment: cell-based or functional assay

Binder	cAMP EC50 [pM]	cAMP EC50, Batch 4 [pM]	cAMP EC50, Batch 2 [pM]
B1	600	–	–
B2	460	–	–
B3	46000	–	–
B4	290	–	–
B5	20100	–	–
B6	600	–	–
B7	1100	–	–
B8	420	–	–
B9	950	580	–
B10	790	–	–
B11	300	–	–
B12	8500	–	–
B13	4800	–	–
B14	15000	–	–
B15	690	–	–
B16	–	–	370

Biological target: T3, mouse GIP receptor
Experiment: cell-based or functional assay

Binder	cAMP EC50 [nM]	cAMP EC50, Batch 4 [pM]	cAMP EC50, Batch 2 [nM]
B1	2600	–	–
B2	160	–	–
B3	4300	–	–
B4	170	–	–
B5	46.7	–	–
B8	130	–	–
B9	0.72	210	–
B10	3.6	–	–
B11	460	–	–
B13	190	–	–
B14	180	–	–
B16	–	–	53

Biological target: T4, rat GLP-1 receptor
Experiment: cell-based or functional assay

Binder	cAMP EC50 [pM]	cAMP EC50, Batch 4 [pM]	cAMP EC50, Batch 2 [pM]
B1	37	–	–
B2	58	–	–
B3	1300	–	–
B4	23	–	–
B5	130	–	–
B6	47	–	–
B7	83	–	–
B8	62	–	–
B9	100	23	–
B10	66	–	–
B11	24	–	–
B12	1100	–	–
B13	400	–	–
B14	150	–	–
B15	96	–	–
B16	–	–	31

Biological target: T5, rat GIP receptor
Experiment: cell-based or functional assay

Binder	cAMP EC50 [pM]	cAMP EC50, Batch 4 [pM]	cAMP EC50, Batch 2 [pM]
B1	650	–	–
B2	720	–	–
B3	190000	–	–
B4	140	–	–
B5	976	–	–
B6	17000	–	–
B7	47	–	–
B8	310	–	–
B9	150	31	–
B10	170	–	–
B11	210	–	–
B12	6800	–	–
B13	48000	–	–
B14	190	–	–
B15	7000	–	–
B16	–	–	190
